# Experimental data: US20240358704A1, “COMBINED ADMINISTRATION” (Hoffmann-La Roche Inc., priority 2021, published 2024)
# B1: GYM329: anti-myostatin antibody binding latent myostatin; CDRs SEQ ID 1-6, VH SEQ ID 7, VL SEQ ID 8, heavy chain SEQ ID 9, light chain SEQ ID 10 (antibody)
# heavy: QVQLVESGGGLVQPGGSLRLSCAVSGIDLSHDDISWVRQAPGKGLEWVSIISYAGSTYYASWAKGRLTISKDTSKNQVVLTMTNMDPVDTATYYCARGVPAYSHGGDLWGQGTLVTVSSASTKGPSVFPLAPSSKSTSGGTAALGCLVKDYFPEPVTVSWNSGALTSGVHTFPAVLQSSGLYSLSSVVTVPSSSLGTQTYICNVNHKPSNTKVDKKVEPKSCDKTHTCPPCPAPEYLGGDSVFLFPPKPKDVLMISRTPEVTCVVIDVSHEDPEVKFNWYVDGVEVHNAKTKPREEQYNSTYRVVSVLPVLHRDWLNGKEYKCKVSNKALPKPIEKTISKAKGQRREPQVYTLPPSREEMTKNQVSLTCLVKGFYPSDIAVEWESNGQPENNYKTTPPVLDSDGSFFLYSKLTVDKSRWQQGNVFSCSVLHEALHAHTTRKELSLSP
# light: DIVMTQSPATLSLSPGERATLSCTTSQSVYHENWLSWFQQKPGQPPKLLIYWASTLAYGVPSRFSGSGSGTDFTLTISSLQPEDAATYYCAGGYGGGRYAFGQGTKVEIKRTVAAPSVFIFPPSDEQLKSGTASVVCLLNNFYPREAKVQWKVDNALQSGNSQESVTEQDSKDSTYSLSSTLTLSKADYEKHKVYACEVTHQGLSSPVTKSFNRGEC
# modifications: CDR sequences
# Key:
# delta7 mice [1] = test: Body weight and muscle weights at PND52 in pharmacological mouse model of SMA; type: in vivo
# Source text: The mouse model of SMA (pharmacological model) that has been used in the preclinical trial herein is the delta7 mice treated with a sub-maximal dose of the SMN-upregulating compound SMN-C1 as described in Naryshkin et al, Science 345, 688-693, 2014. […] The advantage of this model is that it has a more severe phenotype than existing mild models but lives into adulthood, which enables testing SMA treatments after disease onset. […] (1) a monotherapy, (2) as a combination therapy with an SMN-upregulating compound administered at the onset of disease, and (3) in a mild model of SMA was don. Dosing of the myostatin inhibitor began at PND24 and continued for 28 days until PND52. In all of these models, GYM329 was administrated once per week at 3 mg/kg (4 subcutaneous injections). A cohort of wild type (WT) littermates treated with the vehicle was included as a reference group. At the study's conclusion, in vivo muscle force frequency, muscle weight, muscle histopathology, bone morphometry, and voluntary running were assessed.
# The pharmacological model was generated by treating delta7 mice [FVB.Cg-Tg(SMN2*delta7)4299Ahmb Tg(SMN2)89Ahmb, homozygous knockout mice completely lacking mouse Smnl] with a dose of an SMN-upregulating compound, SMN-C1. For CH1 and CH2, the mice were given a suboptimal dose of SMN-C1 (0.1 mg/kg daily) for the duration of the study. For CH3 and CH4, mice were given a suboptimal dose of SMN-C1 (0.1 mg/kg daily) from PND1-23 and switched to a higher dose (3 mg/kg daily) from PND24-52. For CH5 and CH6, mice were treated with a higher dose of SMN-C1 (3 mg/kg daily) for the duration of the study. Wild type (WT) mice [FVB.Cg-Tg(SMN2*delta7)4299Ahmb Tg(SMN2)89Ahmb, homozygous for the mouse Smnl gene] were used as a reference.
# Statistical analysis was performed using SigmaPlot v11. Muscle performance data were analyzed using a two-way repeated measures ANOVA. Post-hoc analysis for pairwise comparisons was performed with a Holm-Sidak test. Body weights, muscle weights, muscle fiber typing data, and cortical and trabecular bone data were analyzed using a one-way ANOVA, with post-hoc analysis performed with a Holm-Sidak test. Data
# Body weights were taken daily for SMA mice and weekly for WT mice.
# delta7 mice [2] = test: In vivo plantarflexor muscle function (maximum torque, force frequency response); settings: PND52
# Method: Hind limb muscle performance was measured in vivo with a 305C muscle lever system (Aurora Scientific Inc., Aurora, CAN). Mice were anesthetized via inhalation (˜4-5% isoflurane, or to effect) and placed on a thermostatically controlled table where anesthesia was maintained via nose-cone (˜2% isoflurane, or to effect). Hair was removed from the lower leg by application of depilatory cream for 3 minutes, followed by thorough rinsing
# with physiological buffer. The leg was then wiped with a 5% povidone-iodine solution followed by 70% isopropyl alcohol. The knee was isolated using a pin through the tibial head and the foot firmly fixed to a footplate on the motor shaft. Contractions were elicited in the gastrocnemius by percutaneous electrical stimulation of the sciatic nerve.
# (§1) On both muscles, a force frequency response was performed. Briefly, a series of stimulations were performed at increasing frequency of stimulation (0.2 ms pulse, 500 ms train duration): 1, 10, 20, 40, 60, 80, 100, and 150 Hz, followed by a final stimulation at 1 Hz.
# (§2) Muscle function data were analyzed using Aurora Scientific 615A Dynamic Muscle Analysis Software Suite in high-throughput mode. The software automatically determines a baseline, a maximum, and a minimum. The baseline is then subtracted from the maximum to give the maximal generated force. Each data file was manually inspected to ensure that cursors and fits were assigned properly and corrected when necessary. Data were then grouped and means and standard error of the mean (SEM) calculated. In the plantarflexor muscle group, results were presented as torque, expressed in the unit mN·m, since the assay measures the force produced by the gastrocnemius rotating about the ankle. Force was directly measured in the masseter, expressed in the unit gram.
# delta7 mice [3] = test: In vivo masseter muscle function (maximum force, force frequency response); settings: GYM329 3 mg/kg SC weekly, PND52
# Source text: To assess masseter function, the mouse was anesthetized via inhalation (˜4-5% isoflurane, or to effect) and placed on a thermostatically controlled table where anesthesia was maintained via nose-cone (˜2% isoflurane, or to effect). The mouse was placed supine with custom designed restraint to ensure accessibility of the jaw for testing. The lever arm of the 305C muscle lever system (Aurora Scientific Inc., Aurora, CAN) was positioned in the diastema of the mandible and a suture was run under the middle lower incisors of the mouse and attached to the lever arm. The masseter was contracted by electrical stimulation using surface electrodes.
# as §1, §2
# delta7 mice [4] = test: Plantarflexor histology: muscle fiber typing and cross-sectional area; type: in vivo; settings: GYM329 3 mg/kg SC weekly
# Method: Plantarflexor (gastrocnemius, plantaris, and soleus) samples frozen for histology were embedded in cryomatrix on a soft cork surface to enable easy sectioning. Briefly, frozen and embedded tissues were mounted in a cryotome and serially sectioned (10 μm thickness) perpendicular to the fiber axis. Multiple slices (5-10) were taken at different portions of the muscle. The slices were then fixed in ice-cold paraformaldehyde and stored at −80° C. until further use.
# For cross-sectional area determination, fixed sections from the mid-belly of the muscle were stained with wheat germ agglutinin (WGA) conjugated to a fluorophore to visualize cell membranes. Sections were digitized using fluorescent microscopy, cell boundaries were traced using predictive software, and cross-sectional area was determined via unbiased automated measurements. For muscle fiber type determination, histological slices were taken from the mid-belly of the soleus and the gastrocnemius muscle. The fixed tissue sections were then blocked using SuperBlock PBS blocking buffer (Thermo Fisher) for 1 h at room temperature. The slide was then washed with PBS and covered with a primary antibody against either MyHC-I, MyHC-IIa, or MyHC-IIb (1:20 dilution; Developmental Studies Hybridoma Database) and incubated overnight at 4° C. The slide was then washed with PBS and the appropriate secondary antibody added for 1 h at room temperature. The slide was washed again in PBS, covered in mounting solution, and a coverslip used to seal the tissue section for fluorescence microscopy measures. Fluorescently-labeled tissue sections were digitized using a fluorescence microscope (Nikon). Images were then analyzed for number of cells using standard counting software.
# delta7 mice [5] = test: Bone microCT of the tibia (cortical and trabecular parameters); type: in vivo; settings: GYM329 3 mg/kg SC weekly
# Method: Bone microCT scans were performed in tibias collected at PND52. There was no effect of treatment on cortical or trabecular parameters (FIG. 7 & FIG. 8).
# [6] = Tolerability study in healthy adult subjects; type: in vivo, human; settings: at AUC of 385 μg×d/mL
# [7] = delta 7 mice + high dose SMN-C1 (3 mg/kg PND1-52), GYM329 3 mg/kg SC weekly, PND52, vs SMA Vehicle
# [8] = delta 7 mice + low to high dose SMN-C1 (0.1 mg/kg PND1-23, 3 mg/kg PND24-52)
# [9] = delta 7 mice + high dose SMN-C1 (3 mg/kg PND1-52)
# [10] = delta 7 mice + high dose SMN-C1 (3 mg/kg PND1-52), vs SMA Vehicle
# [11] = delta 7 mice + low dose SMN-C1 (0.1 mg/kg PND1-52)
# [12] = PND52, delta 7 mice + low dose SMN-C1 (0.1 mg/kg PND1-52)
molecule,measurement,setting,value
B1,Body weights,delta7 mice [1]; [7],significantly increased
same,Gastrocnemius weight,delta7 mice [1]; [7],significantly increased
same,Soleus weight,delta7 mice [1]; [7],significantly increased
same,TA weight,delta7 mice [1]; [7],significantly increased
same,Body weight,"delta7 mice [1]; delta 7 mice + low dose SMN-C1 (0.1 mg/kg IP QD PND1-52), GYM329 3 mg/kg SC weekly from PND24, vs SMA Vehicle",not significantly increased
same,Gastrocnemius weight,"delta7 mice [1]; delta 7 mice + low dose SMN-C1 (0.1 mg/kg PND1-52), GYM329 3 mg/kg SC weekly, PND52, p=0.061",trend for increased
same,Muscle weights,"delta7 mice [1]; delta 7 mice + low dose SMN-C1 (0.1 mg/kg PND1-52), GYM329 3 mg/kg SC weekly, PND52, vs SMA Vehicle",did not significantly affect
same,Muscle weights,"delta7 mice [1]; delta 7 mice + low to high dose SMN-C1 (0.1 mg/kg PND1-23, 3 mg/kg PND24-52), GYM329 3 mg/kg SC weekly, PND52",not affected
same,Plantarflexor muscle function (maximum torque),"delta7 mice [2]; delta 7 mice + high dose SMN-C1 (3 mg/kg PND1-52), GYM329 3 mg/kg SC weekly",not significantly affected
same,Plantarflexor muscle function (maximum torque),"delta7 mice [2]; delta 7 mice + low dose SMN-C1 (0.1 mg/kg PND1-52), 3 mg/kg SC weekly, main effect p=0.078 vs SMA Vehicle",trend for improvement
same,Plantarflexor muscle function (maximum torque),"delta7 mice [2]; delta 7 mice + low to high dose SMN-C1 (0.1 mg/kg PND1-23, 3 mg/kg PND24-52), GYM329 3 mg/kg SC weekly",no effect
same,Masseter maximum force,"delta7 mice [3]; at 80, 100, and 150 Hz, delta 7 mice + high dose SMN-C1 (3 mg/kg PND1-52), vs SMA Vehicle",increased
same,Masseter function,"delta7 mice [3]; delta 7 mice + high dose SMN-C1 (3 mg/kg PND1-52), main effect p=0.048 vs SMA Vehicle",improved
same,Masseter function (maximum force),"delta7 mice [3]; delta 7 mice + low dose SMN-C1 (0.1 mg/kg PND1-52), vs SMA Vehicle",no effect
same,Masseter function (maximum force),delta7 mice [3]; [8],no effect
same,Muscle fiber types,delta7 mice [4]; [9],no significant differences
same,Mean fiber cross-sectional area,delta7 mice [4]; [10],increased
same,Type IIB fiber cross-sectional area,delta7 mice [4]; [10],increased
same,Muscle fiber cross-sectional area,delta7 mice [4]; [11],no differences
same,Muscle fiber type percentages,delta7 mice [4]; [11],no differences
same,Muscle fiber cross-sectional area,delta7 mice [4]; [8],not affected
same,Muscle fiber type composition,delta7 mice [4]; [8],not affected
same,Cortical bone parameters,delta7 mice [5]; [12],no effect
same,Trabecular bone parameters,delta7 mice [5]; [12],no effect
same,Bone volume (trabecular),delta7 mice [5]; [9],improved
same,Cortical cross-sectional thickness,delta7 mice [5]; [9],improved
same,Mean total cross-sectional bone area (cortical),delta7 mice [5]; [9],improved
same,Trabecular number,delta7 mice [5]; [9],improved
same,Trabecular separation,delta7 mice [5]; [9],improved
same,Trabecular thickness,delta7 mice [5]; [9],improved
same,Cross-sectional thickness in cortical bone,delta7 mice [5]; [8],improved
same,Mean total cross-sectional bone area in cortical bone,delta7 mice [5]; [8],improved
same,Trabecular bone parameters,delta7 mice [5]; [8],no effect
same,Tolerability,[6],well-tolerated
